Data published in PMC2714540.

Molecular target: Smurf1 (UniProt Q9HCE7)
Assay: binding to Smurf1, pull-down format inferred
Conditions: reference: Tal210-605 wild type; sites S425

- binding against the reference: stronger
Substance: talin (talin head, TH) 210-605 (from UniProt P26039) Tal210-605 S425A
